By stoichiometry N is commonly meant the number of molecules, sites or subunits per partner or assembly.

The target in series [1] is 2xFLAG-MBP-CYT (cytosolic domain of NOMO1 fused to maltose binding protein) (human). Description: SEC.
The series “SEC-MALS” deals with the molecule itself. Description: SEC-MALS. On the technique in general: In gel filtration, larger molecules generally elute earlier.

In series [1], “2xFLAG-MBP-CYT (cytosolic domain of NOMO1 fused to maltose binding protein) (domain or fragment)” displayed a stoichiometry N of 2.

B1: Nodal Modulator 1 (NOMO1), full length, with C-terminal FLAG tag (natural protein, human, UniProt Q15155 32-1222, looked up)
chain: SEDIVVGCGGFVKSDVEINYSLIEIKLYTKHGTLKYQTDCAPNNGYFMIPLYDKGDFILKIEPPLGWSFEPTTVELHVDGVSDICTKGGDINFVFTGFSVNGKVLSKGQPLGPAGVQVSLRNTGTEAKIQSTVTQPGGKFAFFKVLPGDYEILATHPTWALKEASTTVRVTNSNANAASPLIVAGYNVSGSVRSDGEPMKGVKFLLFSSLVTKEDVLGCNVSPVPGFQPQDESLVYLCYTVSREDGSFSFYSLPSGGYTVIPFYRGERITFDVAPSRLDFTVEHDSLKIEPVFHVMGFSVTGRVLNGPEGDGVPEAVVTLNNQIKVKTKADGSFRLENITTGTYTIHAQKEHLYFETVTIKIAPNTPQLADIIATGFSVCGQISIIRFPDTVKQMNKYKVVLSSQDKDKSLVTVETDAHGSFCFKAKPGTYKVQVMVPEAETRAGLTLKPQTFPLTVTNRPMMDVAFVQFLASVSGKVSCLDTCGDLLVTLQSLSRQGEKRSLQLSGKVNAMTFTFDNVLPGKYKISIMHEDWCWKNKSLEVEVLEDDMSAVEFRQTGYMLRCSLSHAITLEFYQDGNGRENVGIYNLSKGVNRFCLSKPGVYKVTPRSCHRFEQAFYTYDTSSPSILTLTAIRHHVLGTITTDKMMDVTVTIKSSIDSEPALVLGPLKSVQELRREQQLAEIEARRQEREKNGNEEGEERMTKPPVQEMVDELQGPFSYDFSYWARSGEKITVTPSSKELLFYPPSMEAVVSGESCPGKLIEIHGKAGLFLEGQIHPELEGVEIVISEKGASSPLITVFTDDKGAYSVGPLHSDLEYTVTSQKEGYVLTAVEGTIGDFKAYALAGVSFEIKAEDDQPLPGVLLSLSGGLFRSNLLTQDNGILTFSNLSPGQYYFKPMMKEFRFEPSSQMIEVQEGQNLKITITGYRTAYSCYGTVSSLNGEPEQGVAMEAVGQNDCSIYGEDTVTDEEGKFRLRGLLPGCVYHVQLKAEGNDHIERALPHHRVIEVGNNDIDDVNIIVFRQINQFDLSGNVITSSEYLPTLWVKLYKSENLDNPIQTVSLGQSLFFHFPPLLRDGENYVVLLDSTLPRSQYDYILPQVSFTAVGYHKHITLIFNPTRKLPEQDIAQGSYIALPLTLLVLLAGYNHDKLIPLLLQLTSRLQGVRALGQAASDNSGPEDAKRQAKKQKTRRT
With B1, in the series “SEC-MALS”, the “stoichiometry N” value worked out at 2.

The values above are taken from article doi:10.1101/2021.01.28.428001 (bioRxiv, 2021).
